Assay [1] deals with APC PBM (Homo sapiens) (UniProt P25054). To be noted: cited from earlier work.
The target of assay [2] is T1, human Scribble PDZ domain 3 (hScrib/PDZ3, AA 1005-1094) (human, UniProt Q14160 1005-1094).
T1 construct: human Scribble (Scrib), PDZ domain 3, residues 1005-1094; source: E. coli BL21 (DE3) CodonPlus or pLysS, purified, tag cleaved
T1 sequence (looked up): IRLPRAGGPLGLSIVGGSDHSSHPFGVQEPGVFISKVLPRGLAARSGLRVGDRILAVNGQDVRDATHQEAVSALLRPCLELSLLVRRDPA
The assay can be described thus: ITC; purified PDZ domain at 75 uM against the 8-mer peptide at 900-1100 uM, 20 injections, 25 °C, 25 mM Tris-HCl pH 8.0, 150 mM NaCl, 5 mM TCEP, one-site binding model. To be noted: both partners purified. (In ITC the heat of successive injections is recorded.)

For assay [3], the target named is T2, human Scribble PDZ domain 1 (hScrib/PDZ1, AA 728-815) (human, UniProt Q14160 728-815).
T2 construct: human Scribble (Scrib), PDZ domain 1, residues 728-815; source: E. coli BL21 (DE3) CodonPlus or pLysS, purified, tag cleaved
The assay is described as above. To be noted: both partners purified.

Assay [4] has as its target T3, hScrib/PDZ3 (AA 1005-1094) (human, UniProt Q14160 1005-1094).
T3 construct: Scribble, human, PDZ3 domain, AA 1005-1094; In pGEX-6P-3 or pGIL-MBP; source: E. coli BL21 (DE3) CodonPlus or pLysS, purified
T3 sequence (looked up): T1 sequence (looked up)
The assay can be described thus: ITC; peptide (900-1100 µM) titrated into PDZ domain (75 µM); 25 mM Tris-HCl pH 8.0, 150 mM NaCl, 5 mM TCEP; 25 °C; 20 injections; one-site binding model. The conditions noted are these: both partners purified.

For assay [5], the target named is T4, hScrib/PDZ1 (AA 728-815) (human, UniProt Q14160 728-815).
T4 construct: Scribble, human, PDZ1 domain, AA 728-815; In pGEX-6P-3 or pGIL-MBP; also called PDZ domain 1 of Scrib; source: E. coli BL21 (DE3) CodonPlus or pLysS, purified
The assay is described as above. To be noted: both partners purified.

Sequence of APC PBM (Homo sapiens) (P25054 whole entry, looked up, the tested form may be a part): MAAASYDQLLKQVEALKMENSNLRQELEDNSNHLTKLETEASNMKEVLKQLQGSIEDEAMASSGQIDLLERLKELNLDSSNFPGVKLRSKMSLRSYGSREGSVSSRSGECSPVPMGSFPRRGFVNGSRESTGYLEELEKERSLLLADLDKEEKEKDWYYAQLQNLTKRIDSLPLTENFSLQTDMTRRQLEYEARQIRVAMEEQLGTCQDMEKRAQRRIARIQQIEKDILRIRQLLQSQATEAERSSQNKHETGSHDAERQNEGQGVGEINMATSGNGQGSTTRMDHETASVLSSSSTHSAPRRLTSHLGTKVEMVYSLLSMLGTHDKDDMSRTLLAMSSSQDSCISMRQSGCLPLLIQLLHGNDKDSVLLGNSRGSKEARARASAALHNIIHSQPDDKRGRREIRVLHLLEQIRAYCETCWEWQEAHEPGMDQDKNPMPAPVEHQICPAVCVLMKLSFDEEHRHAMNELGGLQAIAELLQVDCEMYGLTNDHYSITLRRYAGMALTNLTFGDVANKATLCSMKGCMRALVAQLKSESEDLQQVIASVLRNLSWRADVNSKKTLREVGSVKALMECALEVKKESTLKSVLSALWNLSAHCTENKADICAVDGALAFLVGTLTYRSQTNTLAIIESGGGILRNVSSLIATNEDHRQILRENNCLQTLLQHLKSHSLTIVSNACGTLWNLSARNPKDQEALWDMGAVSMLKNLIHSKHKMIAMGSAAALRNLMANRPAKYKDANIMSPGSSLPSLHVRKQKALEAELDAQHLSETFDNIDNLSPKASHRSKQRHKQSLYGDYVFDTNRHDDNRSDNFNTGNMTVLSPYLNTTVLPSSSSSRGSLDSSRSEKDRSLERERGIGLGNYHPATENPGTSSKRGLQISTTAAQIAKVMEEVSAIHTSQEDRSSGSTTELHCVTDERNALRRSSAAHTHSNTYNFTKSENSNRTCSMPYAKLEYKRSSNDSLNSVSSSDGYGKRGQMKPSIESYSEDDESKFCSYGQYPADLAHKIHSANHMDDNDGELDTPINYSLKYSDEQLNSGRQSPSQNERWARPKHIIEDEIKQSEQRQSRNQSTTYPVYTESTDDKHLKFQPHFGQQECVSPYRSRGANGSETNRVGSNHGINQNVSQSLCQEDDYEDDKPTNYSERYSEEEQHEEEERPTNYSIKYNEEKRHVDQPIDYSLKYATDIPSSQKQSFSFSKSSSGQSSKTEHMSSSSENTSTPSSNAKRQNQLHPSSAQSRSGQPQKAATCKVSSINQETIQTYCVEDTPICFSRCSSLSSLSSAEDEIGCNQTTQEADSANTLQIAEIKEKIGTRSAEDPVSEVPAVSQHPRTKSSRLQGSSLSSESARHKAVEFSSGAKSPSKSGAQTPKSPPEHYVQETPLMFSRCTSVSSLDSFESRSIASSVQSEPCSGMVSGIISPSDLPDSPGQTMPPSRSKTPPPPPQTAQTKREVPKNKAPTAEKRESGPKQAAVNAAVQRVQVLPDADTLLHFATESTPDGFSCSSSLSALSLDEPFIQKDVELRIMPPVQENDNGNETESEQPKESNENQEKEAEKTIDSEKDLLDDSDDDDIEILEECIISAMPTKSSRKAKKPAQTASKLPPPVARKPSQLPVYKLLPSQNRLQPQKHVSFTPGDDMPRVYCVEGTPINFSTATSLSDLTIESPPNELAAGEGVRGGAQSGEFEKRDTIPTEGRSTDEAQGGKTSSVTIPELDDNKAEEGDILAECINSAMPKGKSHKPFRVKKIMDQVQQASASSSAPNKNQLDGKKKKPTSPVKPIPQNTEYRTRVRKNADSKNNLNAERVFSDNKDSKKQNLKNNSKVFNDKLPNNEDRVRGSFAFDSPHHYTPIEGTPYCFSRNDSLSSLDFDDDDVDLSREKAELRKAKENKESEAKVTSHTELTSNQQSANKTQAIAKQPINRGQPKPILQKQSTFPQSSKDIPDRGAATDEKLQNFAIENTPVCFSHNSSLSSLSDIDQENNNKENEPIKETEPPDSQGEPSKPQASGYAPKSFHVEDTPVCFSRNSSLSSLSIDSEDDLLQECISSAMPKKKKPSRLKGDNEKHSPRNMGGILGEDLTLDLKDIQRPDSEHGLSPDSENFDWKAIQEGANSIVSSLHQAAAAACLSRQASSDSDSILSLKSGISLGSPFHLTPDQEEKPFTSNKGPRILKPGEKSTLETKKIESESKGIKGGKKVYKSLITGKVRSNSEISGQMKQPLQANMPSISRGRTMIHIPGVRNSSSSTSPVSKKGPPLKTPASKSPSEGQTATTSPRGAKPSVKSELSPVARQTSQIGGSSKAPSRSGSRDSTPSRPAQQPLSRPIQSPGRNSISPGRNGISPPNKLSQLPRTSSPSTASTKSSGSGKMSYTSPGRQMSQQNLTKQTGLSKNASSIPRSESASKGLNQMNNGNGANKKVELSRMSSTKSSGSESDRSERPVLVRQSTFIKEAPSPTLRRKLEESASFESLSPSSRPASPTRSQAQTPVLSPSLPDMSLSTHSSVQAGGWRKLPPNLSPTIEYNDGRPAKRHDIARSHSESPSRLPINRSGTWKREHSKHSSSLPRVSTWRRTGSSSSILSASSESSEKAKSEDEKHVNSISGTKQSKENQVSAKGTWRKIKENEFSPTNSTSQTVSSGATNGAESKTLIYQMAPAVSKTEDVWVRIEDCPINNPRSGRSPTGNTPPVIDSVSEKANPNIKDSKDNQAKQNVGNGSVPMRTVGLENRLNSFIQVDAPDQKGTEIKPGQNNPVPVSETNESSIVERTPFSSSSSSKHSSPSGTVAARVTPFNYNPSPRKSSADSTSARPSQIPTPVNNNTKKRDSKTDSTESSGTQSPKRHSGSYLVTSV
T2 sequence (Q14160 728-815): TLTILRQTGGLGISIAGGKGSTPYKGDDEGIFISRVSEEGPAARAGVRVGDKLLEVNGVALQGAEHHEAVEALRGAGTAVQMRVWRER
T4 sequence (Q14160 728-815): as above

Broadly, the Kd is the equilibrium constant for the complex coming apart. As for Scribble PDZ1 (from UniProt Q14160), the Kd in assay [1] was 6 µM.

B1: C-terminally derived 8-mer human TMIGD1 peptide (peptide)
peptide: DPHSETAL
notes: also called TMIGD1/WT; TMIGD1 PBM peptide; source: synthetic peptide, obtained from Genscript
Broadly, the stoichiometry N is the number of molecules, sites or subunits per partner or assembly. As for B1, the entries for the “stoichiometry N” value in assay [2] and in assay [3] were 0.93 ± 0.04 and 0.95 ± 0.07, respectively.

B2: C-terminally derived 8-mer human TMIGD1 peptide (DPHSETAL) (peptide)
peptide: DPHSETAL
notes: TMIGD1, human, the eight C-terminal residues with the PBM (SETAL), free C-terminal carboxyl; also called TMIGD1/WT; TMIGD1 PBM peptide; source: synthetic peptide (Genscript)
As for B2, the values for the dissociation constant (Kd) in assay [4] and in assay [5] were 9.12 µM and 18.2 µM, respectively.
